Reference: patent US20030100089A1

T1: Cathepsin G
T1 sequence (P08311 21-244, species assumed, looked up): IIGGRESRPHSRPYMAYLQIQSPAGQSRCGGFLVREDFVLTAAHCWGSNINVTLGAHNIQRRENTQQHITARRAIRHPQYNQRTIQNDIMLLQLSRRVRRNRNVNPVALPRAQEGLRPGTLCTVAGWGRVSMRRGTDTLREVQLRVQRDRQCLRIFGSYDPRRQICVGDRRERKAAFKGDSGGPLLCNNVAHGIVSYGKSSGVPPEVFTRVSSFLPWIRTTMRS

T2: MMP-7
T2 sequence (P09237 95-267, species assumed, looked up): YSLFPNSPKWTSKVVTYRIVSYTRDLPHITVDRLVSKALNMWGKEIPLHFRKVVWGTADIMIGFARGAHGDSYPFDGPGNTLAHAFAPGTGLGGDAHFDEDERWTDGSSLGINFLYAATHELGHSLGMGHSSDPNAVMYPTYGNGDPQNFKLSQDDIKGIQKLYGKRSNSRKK


Legend:
Cathepsin D = experiment: cell-based or functional assay
Cathepsin G = target: T1, Cathepsin G; experiment: cell-based or functional assay
Chymotrypsin = experiment: cell-based or functional assay
MMP-2 = experiment: cell-based or functional assay
MMP-7 = target: T2, MMP-7; experiment: cell-based or functional assay
Papaine = experiment: cell-based or functional assay
Plasmin = experiment: cell-based or functional assay
Thrombin = experiment: cell-based or functional assay
Trypsin = experiment: cell-based or functional assay
[1] = target: human leukocyte elastase (HLE) (human) (UniProt P08246); experiment: cell-based or functional assay
[2] = target: porcine pancreatic elastase (PPE) (porcine) (UniProt P00772); experiment: cell-based or functional assay
[3] = target: p54 protein (glycoprotein of about 54 kDa isolated from shark cartilage, serine protease inhibitor)

Chain of Alpha 1-antitrypsin (AAT) (P01009 25-418): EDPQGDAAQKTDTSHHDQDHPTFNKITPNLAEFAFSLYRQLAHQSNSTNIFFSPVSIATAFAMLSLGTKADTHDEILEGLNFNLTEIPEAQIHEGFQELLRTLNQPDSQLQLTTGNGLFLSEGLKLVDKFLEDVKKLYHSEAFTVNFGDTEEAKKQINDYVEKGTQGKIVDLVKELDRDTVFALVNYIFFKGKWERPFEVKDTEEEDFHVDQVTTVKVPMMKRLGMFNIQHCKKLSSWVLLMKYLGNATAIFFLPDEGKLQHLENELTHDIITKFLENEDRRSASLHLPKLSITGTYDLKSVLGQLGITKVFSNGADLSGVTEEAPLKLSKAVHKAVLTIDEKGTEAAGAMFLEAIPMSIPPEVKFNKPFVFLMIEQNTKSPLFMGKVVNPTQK
Chain of UniProt P00772 (P00772 27-266): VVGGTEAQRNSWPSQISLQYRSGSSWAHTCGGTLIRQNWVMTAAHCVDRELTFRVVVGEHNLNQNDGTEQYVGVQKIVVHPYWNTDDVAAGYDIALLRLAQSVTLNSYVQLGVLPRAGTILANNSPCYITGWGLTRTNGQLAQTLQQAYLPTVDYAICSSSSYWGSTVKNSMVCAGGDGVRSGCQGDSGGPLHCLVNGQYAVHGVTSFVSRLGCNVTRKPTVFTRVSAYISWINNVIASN

Activity (% inhibition) (Cathepsin D)	Activity (% inhibition) (Cathepsin G)	Activity (% inhibition) (Chymotrypsin)	Activity (% inhibition) (MMP-2)	Activity (% inhibition) (MMP-7)	Activity (% inhibition) (Papaine)	Activity (% inhibition) (Plasmin)	Activity (% inhibition) (Thrombin)	Activity (% inhibition) (Trypsin)	Activity (% inhibition) [1] [% inhibition]	Activity (% inhibition) [2] [% inhibition]	Molecule	elastase assay (fluorescent elastin substrate) [3]
0	0	53	0	0	8	49	0	30	42	84	p54 protein (glycoprotein of about 54 kDa isolated from shark cartilage, serine protease inhibitor)	
77	68	100		0		49		94		64	Alpha 1-antitrypsin (AAT)	
											human leukocyte elastase (HLE) (protein) IVGGRRARPHAWPFMVSLQLRGGHFCGATLIAPNFVMSAAHCVANVNVRAVRVVLGAHNLSRREPTRQVFAVQRIFENGYDPVNLLNDIVILQLNGSATINANVQVAQLPAQGRRLGNGVQCLAMGWGLLGRNRGIASVLQELNVTVVTSLCRRSNVCTLVRGRQAGVCFGDSGSPLVCNGLIHGIASFVRGGCASGLYPDAFAPVAQFVNWIDSIIQ	The inhibition of elastase by the p54 protein was also validated with a human leukocyte elastase
